The values that follow come from patent US6509033.

The assay concerns the target 'Empty' HLA-DR1 purified from insect cells expressing recombinant DR1 cDNA (human).

As a reminder, the Ki is a measure of affinity in units of concentration, obtained from inhibition or displacement. For LPKPPKPVSKMRMATPLLMQALPM (modifications not checked) [Invariant Chain (Ii) 98-121], the Ki was determined as 33 nM.
